{
  "source": "paper PMC10371798",
  "about": "“Protein–protein interactions between tenascin-R and RPTPζ/phosphacan are critical to maintain the architecture of perineuronal nets” (The Journal of Biological Chemistry, 2023)",
  "details_in_all_cases": "both partners purified",
  "key": {"[1]": {"target": "T1, Fg domain of human tenascin-C (human, UniProt P24821 1975-2201)", "T1 construct": "C-terminal fibrinogen-like (Fg) domain of human tenascin-C, amino acid residues 1975-2201; also called HTNC(Fg); TNC(Fg); source: E. coli Origami 2(DE3), purified (Ni Sepharose, HRV 3C cleavage, HiTrap Heparin, Superdex 200)", "T1 sequence (looked up)": "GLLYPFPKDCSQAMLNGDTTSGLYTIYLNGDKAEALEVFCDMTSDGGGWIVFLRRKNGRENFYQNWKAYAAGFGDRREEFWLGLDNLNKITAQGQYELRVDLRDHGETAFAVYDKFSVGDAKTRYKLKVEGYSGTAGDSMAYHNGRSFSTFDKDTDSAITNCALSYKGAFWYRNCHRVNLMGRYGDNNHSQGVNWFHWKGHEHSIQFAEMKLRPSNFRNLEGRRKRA", "assay": "BLI; biotinylated RPTPζ(FN) on streptavidin tips, Fg domain as analyte; room temperature, 150 mM NaCl, 10 mM Na-Hepes pH 7.5, 1 mg/ml BSA, 0.02% Tween-20, 5 mM CaCl2; dose-response analysis of the signal at equilibrium"}, "[2]": {"target": "T2, Fg domain of human tenascin-R (human, UniProt Q92752 1129-1358)", "T2 construct": "C-terminal fibrinogen-like (Fg) domain of human tenascin-R, amino acid residues 1129-1358; also called HTNR(Fg); TNR(Fg); source: E. coli Origami 2(DE3), purified (Ni Sepharose, HRV 3C cleavage, HiTrap Heparin, Superdex 200)", "T2 sequence (looked up)": "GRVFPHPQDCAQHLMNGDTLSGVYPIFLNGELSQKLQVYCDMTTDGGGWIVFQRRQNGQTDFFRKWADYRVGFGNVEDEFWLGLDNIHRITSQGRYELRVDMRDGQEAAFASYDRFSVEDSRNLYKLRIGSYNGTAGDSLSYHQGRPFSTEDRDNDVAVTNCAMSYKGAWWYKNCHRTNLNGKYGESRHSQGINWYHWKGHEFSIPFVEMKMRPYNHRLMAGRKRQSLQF", "assay": "BLI; biotinylated RPTPζ(FN) on streptavidin tips, Fg domain as analyte; room temperature, 150 mM NaCl, 10 mM Na-Hepes pH 7.5, 1 mg/ml BSA, 0.02% Tween-20, 5 mM CaCl2; dose-response analysis of the signal at equilibrium"}, "[3]": {"target": "T1, Fg domain of human tenascin-C", "assay": "BLI; biotinylated RPTPζ(FN) on streptavidin tips, Fg domain as analyte; room temperature, 150 mM NaCl, 10 mM Na-Hepes pH 7.5, 1 mg/ml BSA, 0.02% Tween-20, 5 mM CaCl2; kinetic analysis, sensorgrams fitted to a 1:1 binding model"}, "[4]": {"target": "T2, Fg domain of human tenascin-R", "assay": "BLI; biotinylated RPTPζ(FN) on streptavidin tips, Fg domain as analyte; room temperature, 150 mM NaCl, 10 mM Na-Hepes pH 7.5, 1 mg/ml BSA, 0.02% Tween-20, 5 mM CaCl2; kinetic analysis, sensorgrams fitted to a 1:1 binding model"}, "[5]": {"target": "T3, Fg domain of human tenascin-R (amino acid residues 1129-1358) (human, UniProt Q92752 1129-1358)", "T3 construct": "tenascin-R (TNR), human, fibrinogen-like (Fg) domain, residues 1129-1358; also called TNR(Fg); source: E. coli Origami 2(DE3), purified (Ni Sepharose, 3C cleavage, HiTrap Heparin, Superdex 200)", "T3 sequence (looked up)": "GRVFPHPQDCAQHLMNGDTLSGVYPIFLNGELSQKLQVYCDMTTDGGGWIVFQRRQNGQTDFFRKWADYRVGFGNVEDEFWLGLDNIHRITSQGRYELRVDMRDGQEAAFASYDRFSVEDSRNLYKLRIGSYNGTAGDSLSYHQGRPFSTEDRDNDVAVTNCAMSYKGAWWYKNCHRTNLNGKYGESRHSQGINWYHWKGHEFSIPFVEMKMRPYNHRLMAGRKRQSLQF", "assay": "BLI; biotinylated FN domain of RPTPζ (250 nM) immobilised on streptavidin tips; Fg domain in solution; room temperature; 150 mM NaCl, 10 mM Na-Hepes pH 7.5, 1 mg/ml BSA, 0.02% Tween-20, 5 mM EDTA; KD from the signal at equilibrium"}, "[6]": {"target": "T4, Fg domain of human tenascin-C (amino acid residues 1975-2201) (human, UniProt P24821 1975-2201)", "T4 construct": "tenascin-C (TNC), human, fibrinogen-like (Fg) domain, residues 1975-2201; also called TNC(Fg); WT TNC; source: E. coli Origami 2(DE3), purified (Ni Sepharose, 3C cleavage, HiTrap Heparin, Superdex 200)", "T4 sequence (looked up)": "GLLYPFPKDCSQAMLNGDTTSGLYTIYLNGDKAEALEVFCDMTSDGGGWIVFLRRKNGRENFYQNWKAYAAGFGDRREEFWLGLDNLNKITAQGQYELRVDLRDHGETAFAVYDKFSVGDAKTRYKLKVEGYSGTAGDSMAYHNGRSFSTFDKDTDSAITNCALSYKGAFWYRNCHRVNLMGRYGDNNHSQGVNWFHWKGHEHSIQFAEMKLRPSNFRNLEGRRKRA", "assay": "BLI; biotinylated FN domain of RPTPζ (250 nM) immobilised on streptavidin tips; Fg domain in solution; room temperature; 150 mM NaCl, 10 mM Na-Hepes pH 7.5, 1 mg/ml BSA, 0.02% Tween-20, 5 mM EDTA; KD from the signal at equilibrium"}, "[7]": {"target": "T3, Fg domain of human tenascin-R (amino …)", "assay": "BLI; biotinylated FN domain of RPTPζ (250 nM) immobilised on streptavidin tips; Fg domain in solution; room temperature; 150 mM NaCl, 10 mM Na-Hepes pH 7.5, 1 mg/ml BSA, 0.02% Tween-20, 5 mM CaCl2; KD from the signal at equilibrium"}, "[8]": {"target": "T4, Fg domain of human tenascin-C (amino …)", "assay": "BLI; biotinylated FN domain of RPTPζ (250 nM) immobilised on streptavidin tips; Fg domain in solution; room temperature; 150 mM NaCl, 10 mM Na-Hepes pH 7.5, 1 mg/ml BSA, 0.02% Tween-20, 5 mM CaCl2; KD from the signal at equilibrium"}, "[9]": {"target": "T5, CA-FN domains of human RPTPζ (amino acid residues 34-410) fused to human IgG1 Fc, purified (human, UniProt P23471 34-410)", "T5 construct": "RPTPζ, human, carbonic anhydrase-like and FN domains (CA-FN), residues 34-410; also called RPTPζ(CA-FN); IgG Fc fusion of RPTPζ(CA-FN)", "assay": "AlphaScreen or HTRF; competition format: biotinylated human TNC(Fg) (5 nM) on streptavidin donor beads, purified RPTPζ(CA-FN)-Fc (0.5 nM) on protein A acceptor beads, untagged Fg domains at varying concentrations; room temperature; one-site competition fit"}, "[10]": {"target": "T6, CA-FN domains of human RPTPζ fused to human IgG1 Fc (human, UniProt P23471 34-410)", "T6 construct": "carbonic anhydrase-like and fibronectin type III (CA-FN) domains of human RPTPζ, amino acid residues 34-410; also called RPTPζ(CA-FN)-Fc; RPTPζ(CA-FN)", "assay": "AlphaScreen or HTRF; competition: RPTPζ(CA-FN)-Fc (0.5 nM) on protein A acceptor beads, biotinylated TNC(Fg) (5 nM) on streptavidin donor beads, untagged Fg domain as inhibitor in a dilution series; room temperature; one-site competition fit"}},
  "note": "Values joined by “and” are separate entries in the source; they are usually repeats but may differ in a detail not shown here. Equal entries are not always repeated.",
  "data": [
    {"binder": "biotinylated FN domain of human RPTPζ (domain or fragment, biotin (EZ-Link NHS-PEG4-Biotin, 1:1 molar ratio)) not shown", "note": "[biotinylated FN domain of human RPTPζ, listing 1 of 2 here]", "values": [
      {"measurement": "Kd", "setting": "[1]", "value": "242 nM and 191 nM and 127 nM and 187 nM"},
      {"measurement": "Kd", "setting": "[2]", "value": "114 nM and 117 nM and 113 nM and 104 nM"},
      {"measurement": "Kd", "setting": "[3]", "value": "150 nM and 170 nM and 189 nM and 173 nM"},
      {"measurement": "Kd", "setting": "[4]", "value": "79 nM and 80 nM and 78 nM"}
    ]},
    {"binder": "biotinylated FN domain of human RPTPζ (domain or fragment, biotin (EZ-Link NHS-PEG4-Biotin, 1:1 molar ratio)) not shown", "note": "[biotinylated FN domain of human RPTPζ, listing 2 of 2 here]", "values": [
      {"measurement": "Kd", "setting": "[5]", "value": 712, "unit": "nM"},
      {"measurement": "Kd", "setting": "[6]", "value": 9900, "unit": "nM"},
      {"measurement": "Kd", "setting": "[7]", "value": 112, "unit": "nM"},
      {"measurement": "koff", "setting": "[7]", "value": "> 0.01", "unit": "s⁻¹"},
      {"measurement": "Kd", "setting": "[8]", "value": 187, "unit": "nM"},
      {"measurement": "koff", "setting": "[8]", "value": "> 0.01", "unit": "s⁻¹"}
    ]},
    {"binder": "biotinylated Fg domain of human tenascin-C with a cysteine residue added at the N-terminus (domain or fragment, biotin (EZ-Link Maleimide-PEG2-Biotin) on the added N-terminal cysteine, cysteine residue added at the N-terminus of the Fg domain by site-directed mutagenesis; tenascin-C (TNC), human, fibrinogen-like (Fg) domain, residues 1975-2201; also called biotinylated human TNC(Fg); biotinylated TNC(Fg); source: E. coli Origami 2(DE3), purified, biotinylated, then gel filtration) CGLLYPFPKDCSQAMLNGDTTSGLYTIYLNGDKAEALEVFCDMTSDGGGWIVFLRRKNGRENFYQNWKAYAAGFGDRREEFWLGLDNLNKITAQGQYELRVDLRDHGETAFAVYDKFSVGDAKTRYKLKVEGYSGTAGDSMAYHNGRSFSTFDKDTDSAITNCALSYKGAFWYRNCHRVNLMGRYGDNNHSQGVNWFHWKGHEHSIQFAEMKLRPSNFRNLEGRRKRA", "values": [
      {"measurement": "binding result", "setting": "[9]", "value": "binds"}
    ]},
    {"binder": "biotinylated Fg domain of human tenascin-C with an added N-terminal cysteine (domain or fragment, biotin (EZ-Link Maleimide-PEG2-Biotin) on the cysteine added at the N-terminus, a cysteine residue added at the N-terminus of the Fg domain by site-directed mutagenesis; C-terminal fibrinogen-like (Fg) domain of human tenascin-C, amino acid residues 1975-2201; also called biotin-HTNC(Fg); biotinylated human TNC(Fg); source: E. coli Origami 2(DE3), purified, biotinylated, then gel filtration) CGLLYPFPKDCSQAMLNGDTTSGLYTIYLNGDKAEALEVFCDMTSDGGGWIVFLRRKNGRENFYQNWKAYAAGFGDRREEFWLGLDNLNKITAQGQYELRVDLRDHGETAFAVYDKFSVGDAKTRYKLKVEGYSGTAGDSMAYHNGRSFSTFDKDTDSAITNCALSYKGAFWYRNCHRVNLMGRYGDNNHSQGVNWFHWKGHEHSIQFAEMKLRPSNFRNLEGRRKRA", "values": [
      {"measurement": "binding result", "setting": "[10]", "value": "binds"}
    ]}
  ]
}
